Assays:
[1] = molecular target: HCMV virus particles, strain TB40/E; assay: cell-based or functional assay
[2] = molecular target: HCMV virus particles, strain TB40/E; assay: immunofluorescence: intensity of anti-human Fc staining per virus particle on HFFs at different PDGFR-alpha-Fc concentrations

soluble PDGFR-alpha-Fc chimera (R&D 6765-PR-050) (Fc fusion)
EC50 of inhibition of infection of HECs (IE antigen staining) [1]: 20 to 50 ng/mL | EC50 of inhibition of infection of HFFs (IE antigen staining) [1]: 10 to 20 ng/mL | complete abrogation of infection of HFFs [1]: 200 ng/mL | infectivity of already adsorbed virus on HFFs (200 ng/ml, post adsorption) [1]: 50% | reduction of adsorption of pre-treated virus particles to HECs (100 ng/ml) [1]: 75% | reduction of adsorption of pre-treated virus particles to HFFs (100 ng/ml) [1]: 50% | reduction of penetration of pre-treated virus particles into HFFs (100 ng/ml) [1]: 75% | EC50 [2]: 0.108 µg/mL

— US20210380664A1
